Assays:
[1] = target: 人4-1BB on HEK293/Human4-1BB细胞 (human, UniProt Q07011 24-255); experiment: cell-based or functional assay
[2] = target: T1, 重组人4-1BB蛋白(ACRO，货号41B-H5227) (human, UniProt Q07011 24-186); experiment: SPR (BIAcore), antibody captured on Protein A on a CM5 chip, 4-1BB 20nM-0.31nM as analyte
T1 construct: Bought recombinant protein; also called 4-1BB抗原; TNFRSF9

Chain of 人4-1BB on HEK293/Human4-1BB细胞 (Q07011 24-255): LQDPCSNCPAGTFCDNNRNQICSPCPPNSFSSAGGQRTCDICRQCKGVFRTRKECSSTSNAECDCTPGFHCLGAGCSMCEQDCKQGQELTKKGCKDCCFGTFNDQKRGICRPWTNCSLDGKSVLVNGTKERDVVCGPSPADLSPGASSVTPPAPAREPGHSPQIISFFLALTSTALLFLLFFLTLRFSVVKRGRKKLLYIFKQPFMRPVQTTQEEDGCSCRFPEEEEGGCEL

B1: 抗人4-1BB的单克隆抗体MC03 (antibody, human IgG2, kappa, V domains shown)
VH: EVQLVQSGAEVKKPGATVKISCKASGFNIKDYYIHWVNQAPGKGLEWIGRIDPEDGDIAYAPKFQDRVTLTVDTSTDTAYLELSSLRSEDTAVYYCTTGNYYAMDFWGQGTTVTVSS
VL: QIVLTQSPATLSASPGERVTLSCTASSSVSSSYLHWYQQKPGSSPKLWIYSTSNLASGVPARFSGSGPGTSYTLTISSMEPEDAATYYCHQYHRSPPTFGQGTKLEIKR
notes: Obtained according to PCT/US2020/012080; The isotype control used is human IgG2; also called huG28.21.G2.1.4
- NF-κB报告基因发光值(RLU) EC50 [1]: 7.69 ng/mL
- Kd [2]: 0.918 nM
